One experiment concerns the target T1, HER4 ECD-HRG complex (human, UniProt Q15303 26-651).
T1 construct: HER4 ECD preincubated with a 5-fold molar excess of Heregulin
T1 sequence 1: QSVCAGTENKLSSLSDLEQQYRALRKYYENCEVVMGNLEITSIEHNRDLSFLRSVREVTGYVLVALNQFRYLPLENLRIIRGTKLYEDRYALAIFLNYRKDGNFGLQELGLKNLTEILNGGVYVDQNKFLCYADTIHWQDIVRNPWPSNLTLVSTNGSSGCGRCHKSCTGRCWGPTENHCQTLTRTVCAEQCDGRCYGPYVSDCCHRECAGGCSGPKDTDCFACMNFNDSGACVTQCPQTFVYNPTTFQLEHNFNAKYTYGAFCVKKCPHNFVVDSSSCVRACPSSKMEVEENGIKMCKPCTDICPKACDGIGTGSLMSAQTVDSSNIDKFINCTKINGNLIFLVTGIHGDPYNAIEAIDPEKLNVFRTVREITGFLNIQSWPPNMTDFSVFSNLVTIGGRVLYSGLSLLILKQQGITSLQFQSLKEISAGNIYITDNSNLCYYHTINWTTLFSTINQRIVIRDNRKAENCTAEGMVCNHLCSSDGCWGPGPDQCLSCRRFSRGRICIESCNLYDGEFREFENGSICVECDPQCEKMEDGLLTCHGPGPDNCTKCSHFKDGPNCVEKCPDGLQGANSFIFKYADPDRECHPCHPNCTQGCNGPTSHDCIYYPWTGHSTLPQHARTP
T1 sequence 2: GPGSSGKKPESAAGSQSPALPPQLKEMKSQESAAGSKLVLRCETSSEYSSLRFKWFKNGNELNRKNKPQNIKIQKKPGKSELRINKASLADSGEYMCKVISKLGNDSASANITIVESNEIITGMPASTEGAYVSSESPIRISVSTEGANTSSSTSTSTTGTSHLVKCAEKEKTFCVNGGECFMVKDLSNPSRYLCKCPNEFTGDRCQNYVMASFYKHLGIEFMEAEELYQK
The experiment in a line: SPR Biacore 3000, 37 C.

The target of experiment [1] is T2, human HER3 Extracellular Domain (ECD) (human, UniProt P21860 20-643).
T2 construct: human recombinant, 68 kDa; 'closed' conformation without ligand; also called Her3 ECD; Her-3 ECD
Description: SPR Biacore 3000, 37 C.

B1: anti-HER3/HER4 antibody M-05-74 (antibody, V domains shown)
VH: QVQLQQSGAELAKPGASVKMSCKTSGYTLTDYWIHWVKQRPGQGLEWIGYINPYTGYTESNQKFKDKATLTADKSSNTAYIQLSSLTSEDSAVYYCARPYYYGDYWGQGTTLTVSS
VL: QIVLTQSPAIMSASPGERVTITCSASSSVSYMHWFQQKPGTSPKLLIYSTSNLASGVPARFSGSGSGTSYSLTISRMEAEDAATYYCQQRSSYPFTFGSGTKLEIK
notes: murine monoclonal IgG from hybridoma (supernatant or purified), bivalent; also called M-074; M-5-74
In the experiment with HER4 ECD-HRG complex, B1 gave an equilibrium dissociation constant (Kd) of 6 nM, an MR of 0.9, an off-rate (koff) of 0.0033 s⁻¹ and a kon of 580000 M⁻¹ s⁻¹. This molecule yielded a t/2diss with HER4 ECD-HRG complex of 4 min. Also, in experiment [1], the dissociation constant Kd turned out to be 4 nM, the MR worked out at 0.6, the off-rate constant (koff) is 8.1e-05 s⁻¹ and the kon came to 21000 M⁻¹ s⁻¹. Moreover, the t/2diss in experiment [1] came to 144 min.

These data come from patent US20170233490A1 (Hoffmann-La Roche, published 2017).
